Results reported in patent publication US20230279089A1 (GlaxoSmithKline, published 2023).
Where a chain is given by its changes, count along the chain named.

T1: Cyno TLL1 (cyno, UniProt A0A1D5QYV0 148-1013 (rhesus entry))
T1 sequence: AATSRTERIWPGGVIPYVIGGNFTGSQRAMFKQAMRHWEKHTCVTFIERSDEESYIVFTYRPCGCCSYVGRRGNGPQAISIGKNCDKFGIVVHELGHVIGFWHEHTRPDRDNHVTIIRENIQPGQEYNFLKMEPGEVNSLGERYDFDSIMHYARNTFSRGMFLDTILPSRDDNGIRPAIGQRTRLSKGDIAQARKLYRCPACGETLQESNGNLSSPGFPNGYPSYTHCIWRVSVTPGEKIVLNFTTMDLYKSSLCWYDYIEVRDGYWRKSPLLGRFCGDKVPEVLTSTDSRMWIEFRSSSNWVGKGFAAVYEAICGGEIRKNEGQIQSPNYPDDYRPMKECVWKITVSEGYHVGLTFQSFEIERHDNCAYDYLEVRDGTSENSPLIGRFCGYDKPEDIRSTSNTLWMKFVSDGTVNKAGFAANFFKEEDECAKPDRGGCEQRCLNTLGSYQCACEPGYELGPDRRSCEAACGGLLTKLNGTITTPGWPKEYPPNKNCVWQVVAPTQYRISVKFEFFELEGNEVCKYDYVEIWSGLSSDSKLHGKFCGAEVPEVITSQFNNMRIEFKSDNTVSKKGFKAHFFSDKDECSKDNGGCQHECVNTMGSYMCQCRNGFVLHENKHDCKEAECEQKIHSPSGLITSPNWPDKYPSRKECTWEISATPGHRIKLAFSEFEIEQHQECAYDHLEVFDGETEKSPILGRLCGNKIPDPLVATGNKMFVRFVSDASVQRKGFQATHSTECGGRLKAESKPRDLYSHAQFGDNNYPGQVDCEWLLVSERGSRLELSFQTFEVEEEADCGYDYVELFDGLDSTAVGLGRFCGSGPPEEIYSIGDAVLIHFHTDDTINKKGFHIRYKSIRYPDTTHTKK

T2: Human TLL2 (human, UniProt Q9Y6L7 150-1015, limits assumed)
T2 sequence (looked up): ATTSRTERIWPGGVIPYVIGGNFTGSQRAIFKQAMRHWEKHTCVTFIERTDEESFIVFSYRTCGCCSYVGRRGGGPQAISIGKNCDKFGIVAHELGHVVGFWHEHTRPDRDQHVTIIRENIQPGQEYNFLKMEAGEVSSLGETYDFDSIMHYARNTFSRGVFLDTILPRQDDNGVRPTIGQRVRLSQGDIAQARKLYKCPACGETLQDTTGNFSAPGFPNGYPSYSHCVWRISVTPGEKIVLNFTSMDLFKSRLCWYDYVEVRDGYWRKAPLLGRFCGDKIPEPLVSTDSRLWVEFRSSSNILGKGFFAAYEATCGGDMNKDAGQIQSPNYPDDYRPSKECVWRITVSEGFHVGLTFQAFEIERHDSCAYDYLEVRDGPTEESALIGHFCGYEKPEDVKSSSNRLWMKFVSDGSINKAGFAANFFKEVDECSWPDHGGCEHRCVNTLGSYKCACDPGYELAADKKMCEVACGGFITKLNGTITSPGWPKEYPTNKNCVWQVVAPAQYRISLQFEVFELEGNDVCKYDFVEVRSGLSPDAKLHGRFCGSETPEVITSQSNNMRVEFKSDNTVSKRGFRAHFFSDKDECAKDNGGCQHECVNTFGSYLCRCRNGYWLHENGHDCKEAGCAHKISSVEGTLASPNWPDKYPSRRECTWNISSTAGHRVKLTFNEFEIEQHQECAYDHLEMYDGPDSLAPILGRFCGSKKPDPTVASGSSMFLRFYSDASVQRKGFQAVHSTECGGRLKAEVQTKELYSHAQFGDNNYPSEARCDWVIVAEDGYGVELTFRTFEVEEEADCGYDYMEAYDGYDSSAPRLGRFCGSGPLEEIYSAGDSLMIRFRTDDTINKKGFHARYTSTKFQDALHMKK

T3: Human BMP1 CD+CUB1 truncated antigen (human, UniProt P13497 121-434, limits assumed)
T3 construct: domain: CD+CUB1
T3 sequence (looked up): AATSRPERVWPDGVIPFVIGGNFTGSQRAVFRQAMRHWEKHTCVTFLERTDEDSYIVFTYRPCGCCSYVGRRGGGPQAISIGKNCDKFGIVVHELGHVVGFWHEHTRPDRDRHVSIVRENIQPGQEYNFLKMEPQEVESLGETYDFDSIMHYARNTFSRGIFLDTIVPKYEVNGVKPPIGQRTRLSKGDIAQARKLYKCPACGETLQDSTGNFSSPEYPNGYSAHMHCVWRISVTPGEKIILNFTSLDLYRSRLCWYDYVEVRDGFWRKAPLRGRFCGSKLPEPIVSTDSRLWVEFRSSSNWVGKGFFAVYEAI

B1: 13Y039-4B06-4324 (antibody, human IgG1, kappa, V domains shown)
VH: QVQLVQSGAEVKKPGASVKVSCKASGYTFRGYYMSWVRQAPGQGLEWMGWINPMSGETNYAQKFQGRVTMTRDTSISTAYMELSRLRSDDTAVYYCARDTGELDGMNWYFDLWGRGTLVTVSS
VL: EIVLTQSPATLSLSPGERATLSCRASQSVSSYLAWYQQKPGQAPRLLIYDASNRATGIPARFSGSGSGTDFTLTISSLEPEDFAVYYCQQSDSWPPTFGGGTKVEIKR
notes: Fully human IgG1 LAGA, kappa; HEK expressed
B2: 13Y039-4B06-4373 (antibody, human IgG1, kappa, V domains shown)
VH: B1 VH with G31S, S35N, W50I, M54S, N59S, I76T, A79V, R85S, D89E
VL: B1 VL
notes: as for B1
B3: 13Y039-4B06-4351 (antibody, human IgG1, kappa, V domains shown)
VH: B1 VH with R30S, M54N, N59F
VL: B1 VL
notes: as for B1
B4: 13Y039-4B06-4325 (antibody, human IgG1, kappa, V domains shown)
VH: B1 VH with R30W, M54Q
VL: B1 VL
notes: as for B1
B5: 13Y039-4B06-4327 (antibody, human IgG1, kappa, V domains shown)
VH: B1 VH with R30P, S35T, W50N, M54N, E57W
VL: B1 VL
notes: as for B1
B6: 13Y039-4B06-4376 (antibody, human IgG1, kappa, V domains shown)
VH: B1 VH with R30M, S35N, M54S
VL: B1 VL
notes: as for B1
B7: 13Y039-4B06-4328 (antibody, human IgG1, kappa, V domains shown)
VH: B1 VH with R30H, S35N, M54L
VL: B1 VL
notes: as for B1
B8: 13Y039-4B06-4364 (antibody, human IgG1, kappa, V domains shown)
VH: B1 VH with M54N, N59I
VL: B1 VL
notes: as for B1
B9: 13Y039-4B06-4348 (antibody, human IgG1, kappa, V domains shown)
VH: B1 VH with R30G, M54N, N59Y
VL: B1 VL
notes: as for B1
B10: 13Y039-127G03-2890 (antibody, human IgG1, kappa, V domains shown)
VH: QVQLVQSGAEVKKPGSSVKVSCKASGGTFSSYAISWVRQAPGQGLEWMGGIIPVFGSAYYAQKFQGRVTITADESTSTAYMELSSLRSEDTAVYYCAGEGRAYYGSESYDDSDYMDVWGKGTTVTVSS
VL: DIQMTQSPSSLSASVGDRVTITCQASQDISNYLNWYQQKPGKAPKLLIYDASNLETGVPSRFSGSGSGTDFTFTISSLQPEDIATYYCQQADIFPLTFGGGTKVEIKR
notes: as for B1
B11: 13Y039-152B02-2940 (antibody, human IgG1, kappa, V domains shown)
VH: QVQLVQSGAEVKKPGSSVKVSCKASGGTFSSDAISWVRQAPGQGLEWMGGIITNFGTATYAQKFQGRVTITADESTSTAYMELSSLRSEDTAVYYCARDVGVQLVYHGAFDIWGQGTMVTVSS
VL: B10 VL with E55A, A91D, I93Y, F94L, L96I
notes: as for B1
B12: 13Y039-152B02-2935 (antibody, human IgG1, kappa, V domains shown)
VH: B11 VH with S31E, D32S, T53P, N54T, G56D, A58T, T59N
VL: B10 VL with E55A, A91D, I93Y, F94L, L96I
notes: as for B1
B13: 13Y039-152B02-2948 (antibody, human IgG1, kappa, V domains shown)
VH: B11 VH with S31D, D32F, T53P, N54I, F55Y, T59S, Q65L
VL: B10 VL with E55A, A91D, I93Y, F94L, L96I
notes: as for B1

Molecular target: T1, Cyno TLL1
Experiment: cell-based or functional assay

Going from B1 to B2, the “IC50, FRET enzyme activity, 750 pM biotinylated cynoTLL-1” value (from here on “IC50 … 750 pM biotinylated cynoTLL-1”) rises from 70 pM to 80 pM.

First: B3
Second: B4
The “IC50 … 750 pM biotinylated cynoTLL-1” value of the first is higher: 0.13 nM for the first, 50 pM for the second.

Compared with B5, B6 is higher in “IC50 … 750 pM biotinylated cynoTLL-1” value: 20 pM for the first, 0.15 nM for the second.

First: B7
Second: B8
The “IC50 … 750 pM biotinylated cynoTLL-1” value of the first is lower: 70 pM for the first, 0.11 nM for the second.

First: B9
Second: B10
The “IC50 … 750 pM biotinylated cynoTLL-1” value of the first is lower: 0.18 nM for the first, 0.22 nM for the second.

Going from B11 to B12, the “IC50 … 750 pM biotinylated cynoTLL-1” value rises from 60 pM to 0.11 nM.

With B13 the “IC50 … 750 pM biotinylated cynoTLL-1” value was 70 pM.

Molecular target: T2, Human TLL2
Experiment: cell-based or functional assay

Compared with B1, B2 is higher in “IC50, FRET enzyme activity, 500 pM huTLL-2” value (shortened to “IC50 … 500 pM huTLL-2”): 40 pM for the first, 0.1 nM for the second.

First: B3
Second: B4
The “IC50 … 500 pM huTLL-2” value of the first is lower: 30 pM for the first, 50 pM for the second.

Compared with B5, B6 is higher in “IC50 … 500 pM huTLL-2” value: 30 pM for the first, 90 pM for the second.

Compared with B7, B8 is higher in “IC50 … 500 pM huTLL-2” value: 20 pM for the first, 50 pM for the second.

Compared with B9, B10 is higher in “IC50 … 500 pM huTLL-2” value: 40 pM for the first, 0.15 nM for the second.

Compared with B11, B12 is lower in “IC50 … 500 pM huTLL-2” value: 0.28 nM for the first, 0.2 nM for the second.

B13 was tested, and the “IC50 … 500 pM huTLL-2” value was 0.86 nM.

Molecular target: T3, Human BMP1 CD+CUB1 truncated antigen
Experiment: SPR, mAb captured on protein A, HBS-EP
Experimental: The 16 lead panel antibodies expressed in HEK cells were evaluated for binding to a truncated version of human BMP containing the catalytic domain and truncated domain (Human BMP1 CD+CUB1 truncated antigen) by SPR using BIACORE T200. HBS-EP+ buffer was used and the experiment run at 25° C. Protein A was immobilised to a CM5 sensor chip via amine coupling. The lead panel antibodies were captured onto protein A surface. Human BMP1 CD+CUB1 was then passed over the captured antibodies at various concentrations.

B1 and B2 are within 1.5-fold of each other in Kd: 3.9 nM for the first, 3.3 nM for the second.

B3 and B4 are within 1.5-fold of each other in Kd: 1.9 nM for the first, 2.8 nM for the second.

Going from B5 to B6, the Kd rises from 1.5 nM to 3.7 nM (2.5-fold).

B7 and B8 are within 1.5-fold of each other in Kd: 2.8 nM for the first, 2.4 nM for the second.

Going from B9 to B10, the Kd falls from 1.5 nM to 0.3 nM (5-fold). The second binds more tightly here.

First: B11
Second: B12
The Kd of the first is 2.4-fold higher: 1.9 nM for the first, 0.8 nM for the second. The second binds more tightly here.

B13 showed a Kd of 1.4 nM.
